Experimental data as given in patent US20200071711, “MODULAR CONSTRUCTION OF SYNTHETIC GENE CIRCUITS IN MAMMALIAN CELLS USING MATHEMATICAL MODELING OF CLOSED LOOP TRANSCRIPTIONAL REPRESSORS” (Tsinghua University, published 2020).

Molecular target: T1, TALER14 (synthetic, UniProt Q56830 SEQ:262-1310)
T1 chain: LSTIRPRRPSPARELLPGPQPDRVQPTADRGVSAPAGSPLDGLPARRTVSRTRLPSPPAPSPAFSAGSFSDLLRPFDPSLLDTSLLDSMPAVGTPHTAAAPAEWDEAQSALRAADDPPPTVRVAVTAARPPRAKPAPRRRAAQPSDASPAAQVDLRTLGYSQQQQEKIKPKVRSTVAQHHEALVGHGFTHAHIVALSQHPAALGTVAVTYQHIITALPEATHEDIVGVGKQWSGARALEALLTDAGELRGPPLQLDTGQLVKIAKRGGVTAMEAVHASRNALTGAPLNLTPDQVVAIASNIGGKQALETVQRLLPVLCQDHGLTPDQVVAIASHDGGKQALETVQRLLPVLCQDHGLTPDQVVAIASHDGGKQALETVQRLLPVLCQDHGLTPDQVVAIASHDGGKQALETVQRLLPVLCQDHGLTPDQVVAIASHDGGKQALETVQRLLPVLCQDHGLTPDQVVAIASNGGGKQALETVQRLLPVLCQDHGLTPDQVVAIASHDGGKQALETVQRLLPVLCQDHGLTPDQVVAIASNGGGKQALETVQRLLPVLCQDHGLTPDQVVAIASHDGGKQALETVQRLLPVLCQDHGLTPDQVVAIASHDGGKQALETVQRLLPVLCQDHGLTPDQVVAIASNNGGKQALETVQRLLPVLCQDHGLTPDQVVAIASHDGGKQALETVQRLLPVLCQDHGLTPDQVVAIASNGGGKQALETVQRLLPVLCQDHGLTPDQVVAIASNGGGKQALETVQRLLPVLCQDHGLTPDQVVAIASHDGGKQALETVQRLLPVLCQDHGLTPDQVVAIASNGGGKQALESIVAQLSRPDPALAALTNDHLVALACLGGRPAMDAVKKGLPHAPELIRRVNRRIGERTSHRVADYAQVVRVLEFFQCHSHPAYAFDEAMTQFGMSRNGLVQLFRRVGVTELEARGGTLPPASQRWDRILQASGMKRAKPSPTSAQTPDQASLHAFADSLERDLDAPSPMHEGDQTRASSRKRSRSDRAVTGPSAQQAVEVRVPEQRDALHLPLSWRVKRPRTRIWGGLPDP
Test: cell_activity; HEK293, two sites flanking CMVmini
Settings: tags: EYFP-2A upstream, SV40 NLS

B1: T14 site (dsDNA)
DNA 1: TACCCCTCTCCGCTTCT
DNA 2: AGAAGCGGAGAGGGGTA
Which binding signal does the source give for B1 here?
Its binding signal is 1440 fold repression.
